Data taken from the RNAGym collection of RNA variant scans (doi:10.1021/acssynbio.7b00057).

B1: Pistol ribozyme (parent)
chain: GGGUCGUUGUUCCAUAAUCGCGUGGAUAUGGCACGCAAGUUUCUACCGGGCACCGUAAAUGUCCGACUGGAGCCGUUCGGGCGGCUAUAAACAGACCUCAGGCCCGAAGCGUGGCGGCACCUGCCGCCGGUGGUAAAAAAGAUCGGAAGAGCACACGUCU

Variants of: B1
Test: aptazyme ON/OFF ratio, guanine; higher = stronger switching; co-transcriptional cleavage with and without guanine

Row | Variant | aptazyme ON/OFF ratio
1 | G9A U10A C12G C13A | 1.47
2 | G9A U10A C12G C13G | 1.33
3 | G9A U10A C12G C13U | 1.57
4 | U8G U10C U11G C12U | 1.33
5 | U8G U10C U11G C12G | 1.23
6 | G9A U10A C12A | 1.74
7 | G9A U10A C12G | 1.61
8 | G9A U10A C12U | 1.86
9 | U8G U10G U11C C13G | 1.02
10 | U8G U10G U11C C13A | 1.04
11 | U8G U10G U11C C13U | 1.04
12 | U8G U10G U11A C12A C13G | 1.14
13 | U8G U10G U11A C12A C13A | 1.18
14 | U8G U10G U11A C12A C13U | 1.3
15 | U8G U10G U11G C12G | 1.07
16 | U8G U10G U11G C12U | 1.44
17 | U8G U10G U11G C12A | 1.09
18 | G9A U10A U11A C12U C13A | 1.3
19 | G9A U10A U11A C12U C13G | 1.3
20 | U8G U11G C12U C13A | 1.22
21 | U8G U11G C12U C13G | 1.24
22 | U8G U11G C12U C13U | 1.21
23 | U8G U11A C12G C13A | 1.1
24 | U8G U11A C12G C13G | 1.09

Row | Variant | aptazyme ON/OFF ratio
25 | U8G U11A C12G C13U | 1.09
26 | U8G U10C U11G C13A | 1.07
27 | U8G U10C U11G C13G | 1.07
28 | U8G U10C U11G C13U | 1.05
29 | U8G U11A C12A C13G | 1.14
30 | U8G U11A C12A C13U | 1.28
31 | U8G U11A C12A C13A | 1.18
32 | U8G U10G | 1.32
33 | G9A U10A | 3.05
34 | U8G U11C | 2.46
35 | U8G U11G | 1.25
36 | U8G U11A | 3.01
37 | U8G U10G C12G C13G | 1.14
38 | U8G U10G C12G C13U | 1.35
39 | U8G U10G C12G C13A | 1.31
40 | U8G U10G U11G C12G C13G | 1.1
41 | U8G U10G U11G C12G C13U | 1.29
42 | U8G U10G U11G C12G C13A | 1.15
43 | U8G U10G C13G | 1.23
44 | U8G U10G C13A | 1.15
45 | U8G U10G C13U | 1.11
46 | U8G U10G U11G C12U C13A | 1.42
47 | U8G U10G U11G C12U C13U | 1.34
48 | U8G U10G U11G C12U C13G | 1.31

Row | Variant | aptazyme ON/OFF ratio
49 | U8G U10G C12U | 1.15
50 | U8G U10G C12G | 1.3
51 | U8G U10G C12A | 1.39
52 | U8G U11A C13G | 1.11
53 | U8G U11A C13A | 1.24
54 | U8G U11A C13U | 1.33
55 | U8G U11G C13U | 1.03
56 | U8G U11G C13G | 1.05
57 | U8G U11G C13A | 1.04
58 | G9A C12U C13A | 1.46
59 | G9A C12U C13G | 1.62
60 | G9A C12U C13U | 1.32
61 | U8G U11G C12A C13A | 1.13
62 | U8G U11G C12A C13U | 1.21
63 | U8G U11G C12A C13G | 1.17
64 | G9A C12U | 1.78
65 | G9A C12A | 1.92
66 | G9A C12G | 1.71
67 | U8G U11C C12U C13U | 1.3
68 | U8G U11C C12U C13G | 1.29
69 | U8G U11C C12U C13A | 1.33
70 | U8G U11C C12G C13A | 1.25
71 | U8G U11C C12G C13G | 1.3
72 | U8G U11C C12G C13U | 1.2

Row | Variant | aptazyme ON/OFF ratio
73 | U8G U10G C12A C13A | 1.26
74 | U8G U10G C12A C13U | 1.17
75 | U8G U10G C12A C13G | 1.19
76 | G9A U10A U11A C12A | 1.66
77 | G9A U10A U11A C12G | 1.83
78 | G9A U10A U11A C12U | 1.68
79 | G9A C12G C13U | 1.44
80 | G9A C12G C13A | 1.3
81 | G9A C12G C13G | 1.46
82 | U8G U10G U11A C12G C13U | 1.34
83 | U8G U10G U11A C12G C13G | 1.17
84 | U8G U10G U11A C12G C13A | 1.13
85 | U8G U10G U11A C12U | 1.38
86 | U8G U10G U11A C12A | 1.18
87 | U8G U10G U11A C12G | 1.28
88 | G9A C13U | 1.52
89 | G9A C13G | 1.07
90 | G9A C13A | 1.45
91 | U8G U10G U11C C12A C13G | 1.08
92 | U8G U10G U11C C12A C13U | 1.09
93 | U8G U10G U11C C12A C13A | 1.06
94 | U8G U10G U11C | 1.05
95 | U8G U10G U11A | 1.26
96 | U8G U10G U11G | 1.45

Row | Variant | aptazyme ON/OFF ratio
97 | G9A U10A C12U C13U | 1.4
98 | G9A U10A C12U C13G | 1.24
99 | G9A U10A C12U C13A | 1.39
100 | U8G U10G C12U C13G | 1.18
101 | U8G U10G C12U C13A | 1.3
102 | U8G U10G C12U C13U | 1.2
103 | U8G U10G U11A C13A | 1.16
104 | U8G U10G U11A C13U | 1.33
105 | U8G U10G U11A C13G | 1.18
106 | U8G U11G C12A | 1.44
107 | U8G U11G C12U | 1.33
108 | U8G U11G C12G | 1.18
109 | U8G U11A C12U | 1.46
110 | U8G U11A C12A | 1.45
111 | U8G U11A C12G | 1.1
112 | U8G U11C C12A C13U | 1.14
113 | U8G U11C C12A C13A | 1.23
114 | U8G U11C C12A C13G | 1.23
115 | U8G U10G U11C C12A | 1.06
116 | U8G U10G U11C C12U | 1.02
117 | U8G U10G U11C C12G | 1.11
118 | U8G U10G U11G C12A C13G | 1.05
119 | U8G U10G U11G C12A C13U | 1.18
120 | U8G U10G U11G C12A C13A | 1.08

Row | Variant | aptazyme ON/OFF ratio
121 | U8G U10G U11C C12U C13U | 1.04
122 | U8G U10G U11C C12U C13G | 1.14
123 | U8G U10G U11C C12U C13A | 1.06
124 | U8G U10C U11G C12U C13U | 1.13
125 | U8G U10C U11G C12U C13A | 1.14
126 | U8G U10C U11G C12U C13G | 1.15
127 | G9A U10A U11A | 2.7
128 | U8G U11G C12G C13U | 1.2
129 | U8G U11G C12G C13G | 1.08
130 | U8G U11G C12G C13A | 1.08
131 | U8G U11C C13A | 1.19
132 | U8G U11C C13G | 1.17
133 | U8G U11C C13U | 1.37
134 | U8G U10G U11A C12U C13U | 1.26
135 | U8G U10G U11A C12U C13A | 1.14
136 | U8G U10G U11A C12U C13G | 1.22
137 | U8G U10C U11G C12G C13U | 1.2
138 | U8G U10C U11G C12G C13G | 1.18
139 | U8G U10C U11G C12G C13A | 1.17
140 | U8G U10G U11G C13G | 1.25
141 | U8G U10G U11G C13A | 1.21
142 | U8G U10G U11G C13U | 1.19
143 | U8G U11A C12U C13A | 1.18
144 | U8G U11A C12U C13U | 1.33

Row | Variant | aptazyme ON/OFF ratio
145 | U8G U11A C12U C13G | 1.12
146 | G9A U10A C13A | 1.41
147 | G9A U10A C13U | 1.5
148 | G9A U10A C13G | 1.14
149 | G9A | 3.41
150 | G9A U10A U11A C12A C13G | 1.25
151 | G9A U10A U11A C12A C13U | 1.97
152 | G9A U10A U11A C12A C13A | 1.4
153 | U8G U11C C12G | 1.3
154 | U8G U11C C12A | 1.13
155 | U8G U11C C12U | 1.26
156 | G9A C12A C13G | 1.12
157 | G9A C12A C13U | 1.38
158 | G9A C12A C13A | 1.45
159 | U8G U10G U11C C12G C13U | 1.13
160 | U8G U10G U11C C12G C13A | 1.11
161 | U8G U10G U11C C12G C13G | 1.1
162 | G9A U10A C12A C13G | 1.06
163 | G9A U10A C12A C13U | 1.36
164 | G9A U10A C12A C13A | 1.61
165 | G9A U10A U11A C12G C13U | 1.23
166 | G9A U10A U11A C12G C13G | 1.2
167 | G9A U10A U11A C12G C13A | 1.26
